Measured values published in US20160362672.

B1: FVIIa-AE288 (protein)
chain: AVFVTQEEAHGVLHRRRRANAFLEELRPGSLERECKEEQCSFEEAREIFKDAERTKLFWISYSDGDQCASSPCQNGGSCKDQLQSYICFCLPAFEGRNCETHKDDQLICVNENGGCEQYCSDHTGTKRSCRCHEGYSLLADGVSCTPTVEYPCGKIPILEKRNASKPQGRIVGGKVCPKGECPWQVLLLVNGAQLCGGTLINTIWVVSAAHCFDKIKNWRNLIAVLGEHDLSEHDGDEQSRRVAQVIIPSTYVPGTTNHDIALLRLHQPVVLTDHVVPLCLPERTFSERTLAFVRFSLVSGWGQLLDRGATALELMVLNVPRLMTQDCLQQSRKVGDSPNITEYMFCAGYSDGSKDSCKGDSGGPHATHYRGTWYLTGIVSWGQGCATVGHFGVYTRVSQYIEWLQKLMRSEPRPGVLLRAPFPGSPGTSESATPESGPGSEPATSGSETPGTSESATPESGPGSEPATSGSETPGTSESATPESGPGTSTEPSEGSAPGSPAGSPTSTEEGTSESATPESGPGSEPATSGSETPGTSESATPESGPGSPAGSPTSTEEGSPAGSPTSTEEGTSTEPSEGSAPGTSESATPESGPGTSESATPESGPGTSESATPESGPGSEPATSGSETPGSEPATSGSETPGSPAGSPTSTEEGTSTEPSEGSAPGTSTEPSEGSAPGSEPATSGSETPGTSESATPESGPGTSTEPSEGSAPGSSS

Tests used:
[1] = biological target: T1, soluble tissue factor (sTF), P13726
T1 chain: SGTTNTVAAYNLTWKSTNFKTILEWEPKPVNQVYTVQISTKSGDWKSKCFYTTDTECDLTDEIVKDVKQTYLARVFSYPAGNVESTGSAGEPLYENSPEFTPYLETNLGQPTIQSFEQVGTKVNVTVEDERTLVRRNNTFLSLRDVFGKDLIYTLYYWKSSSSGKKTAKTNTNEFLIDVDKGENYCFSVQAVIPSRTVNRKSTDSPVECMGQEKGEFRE

Molecule	Concentration by Activity (ng/ml), aPTT based factor assay (FIX-/FXI/-XTEN_AE864)	Fraction Active (FIX-/FXI/-XTEN_AE864)	enhancement of clotting activity against FIX-XTEN without a cleavage site (aPTT based factor assay) (FIX-/FXI/-XTEN_AE864)	Concentration by Activity (ng/ml), aPTT based factor assay (FIX-DFTRVVG-XTEN_AE864)	Fraction Active (FIX-DFTRVVG-XTEN_AE864)	enhancement of clotting activity against FIX-XTEN without a cleavage site (aPTT based factor assay) (FIX-DFTRVVG-XTEN_AE864)	Concentration by Activity (ng/ml), aPTT based factor assay (FIX-KLTRAET-XTEN_AE864)	Fraction Active (FIX-KLTRAET-XTEN_AE864)	enhancement of clotting activity against FIX-XTEN without a cleavage site (aPTT based factor assay) (FIX-KLTRAET-XTEN_AE864)	FVIIa activity by soluble tissue factor (sTF) induced clotting (Stago STA-Clot FVIIa activity assay kit) [1]
FXI protease (activated factor XI, FXIa)	11 ng/mL	40%	In all three cases the presence of a FXI cleavage site enhanced the clotting activity by greater than 30-fold	9 ng/mL	34%	In all three cases the presence of a FXI cleavage site enhanced the clotting activity by greater than 30-fold	7 ng/mL	30%	In all three cases the presence of a FXI cleavage site enhanced the clotting activity by greater than 30-fold	–
B1	–	–	–	–	–	–	–	–	–	an activity equivalent to 112 U/ml of FVIIa activity
